Test results as given in patent US8754043B2, “Epidermal growth factor compositions” (Bharat Biotech International Limited, priority 2005, dated 2014).

How the values were obtained:
rats = assay: Pre-clinical safety studies (acute 8 days, sub-acute 30 days) in rats; type: in vivo
Procedure: (§1) Various combinations of EGF were thus carried out and the combinations were subjected to thermal stability as per ICH guidelines. Pre-clinical studies for safety of the formulations with varying percentages of EGF, were conducted in both rats and rabbits, as per the approved guidelines. Briefly, acute toxicity studies were carried out for 8 days, sub-acute studies were carried on for 30 days and ocular irritation study was conducted for 7 days.

rabbits = assay: Pre-clinical safety studies (acute 8 days, sub-acute 30 days) in rabbits; type: in vivo
Procedure: as §1

With `CC[C@H](C)[C@@H]1NC(=O)[C@H](Cc2ccc(O)cc2)NC(=O)CNC(=O)[C@H](C(C)C)NC(=O)[C@H](C(C)C)NC(=O)[C@@H](NC(=O)[C@H](CC(N)=O)NC(=O)[C@@H]2CSSC[C@@H]3NC(=O)[C@H](Cc4ccc(O)cc4)NC(=O)CNC(=O)[C@H](CC(=O)O)NC(=O)[C@H](Cc4c[nH]cn4)NC(=O)[C@H](CO)NC(=O)[C@H](CC(C)C)NC(=O)[C@@H]4CCCN4C(=O)[C@@H](NC(=O)[C@H](CCC(=O)O)NC(=O)[C@H](CO)NC(=O)[C@H](CC(=O)O)NC(=O)[C@H](CO)NC(=O)[C@@H](N)CC(N)=O)CSSC[C@H](NC(=O)[C@H](C(C)C)NC(=O)CNC(=O)[C@H](CC(=O)O)NC(=O)[C@H](Cc4c[nH]cn4)NC(=O)[C@H](CC(C)C)NC3=O)C(=O)N[C@@H](CCSC)C(=O)N[C@@H](Cc3ccc(O)cc3)C(=O)N[C@@H]([C@@H](C)CC)C(=O)N[C@@H](CCC(=O)O)C(=O)N[C@@H](C)C(=O)N[C@@H](CC(C)C)C(=O)N[C@@H](CC(=O)O)C(=O)N[C@@H](CCCCN)C(=O)N[C@@H](Cc3ccc(O)cc3)C(=O)N[C@@H](C)C(=O)N2)CSSC[C@@H](C(=O)N[C@@H](CCC(N)=O)C(=O)N[C@@H](Cc2ccc(O)cc2)C(=O)N[C@@H](CCCNC(=N)N)C(=O)N[C@@H](CC(=O)O)C(=O)N[C@@H](CC(C)C)C(=O)N[C@@H](CCCCN)C(=O)N[C@@H](Cc2c[nH]c3ccccc23)C(=O)N[C@@H](Cc2c[nH]c3ccccc23)C(=O)N[C@@H](CCC(=O)O)C(=O)N[C@@H](CC(C)C)C(=O)N[C@@H](CCCNC(=N)N)C(=O)O)NC(=O)[C@H](CCCNC(=N)N)NC(=O)[C@H](CCC(=O)O)NC(=O)CNC1=O` [EGF, Epidermal Growth Factor] as the molecule, how does the biochemical parameters (rats; control vs treated) read?
Its biochemical parameters is “within the normal range and no abnormality was observed”.

What about the “growth rate and food consumption” value (rats; control vs treated) of the same molecule?
Its value is “normal & did not differ significantly”.

What about the hematological parameters (rats; control vs treated) of the same molecule?
The hematological parameters was “no observable changes”.

What about the anti-body response (rats; treated groups) of the same molecule?
Its anti-body response is “no observable anti-body response”.

What about the biochemical parameters (rabbits; control vs treated) of the same molecule?
The biochemical parameters was “within the normal range and no abnormality was observed”.

What about the “growth rate and food consumption” value (rabbits; control vs treated) of the same molecule?
The value was “normal & did not differ significantly”.

And the hematological parameters (rabbits; control vs treated)?
Its hematological parameters is “no observable changes”.

What about the anti-body response (rabbits; treated groups) of the same molecule?
Its anti-body response is “no observable anti-body response”.
